# Assay results: patent publication US9447158B2
# Target: MAPKAP Kinase II (MK2)
binder,measurement,value
WLRRIKA,% of … [SEQ ID NO: 115] Reaction Velocity at an Inhibitor Concentration of 100 µM,394%
